{
  "source": "paper PMC7925540",
  "target": "Vlp15/16 of B. miyamotoi HT31 (B. miyamotoi HT31)",
  "test": "ELISA; Vlp15/16 (5 µg/ml) immobilised, increasing amounts of plasminogen (0 to 20 µM); non-linear regression, one-site specific binding model",
  "note": "pKd: −log10 of the molar value.",
  "data": [
    {"substance": "Human glu-plasminogen (natural protein)", "values": [
      {"measurement": "pKd", "value": 6.45}
    ]}
  ]
}
